# Measured values taken from US7012128B2, “Interaction between cyclin D1 and steroid receptor co-activators and uses thereof in assays” (TopoTarget UK Limited, priority 1998, dated 2006).
# B1: cyclin D3: D-type cyclin lacking the leucine-rich motif (protein, UniProt P30281 1-292, looked up)
# G1/S-specific cyclin-D3: MELLCCEGTRHAPRAGPDPRLLGDQRVLQSLLRLEERYVPRASYFQCVQREIKPHMRKMLAYWMLEVCEEQRCEEEVFPLAMNYLDRYLSCVPTRKAQLQLLGAVCMLLASKLRETTPLTIEKLCIYTDHAVSPRQLRDWEVLVLGKLKWDLAAVIAHDFLAFILHRLSLPRDRQALVKKHAQTFLALCATDYTFAMYPPSMIATGSIGAAVQGLGACSMSGDELTELLAGITGTEVDCLRACQEQIEAALRESLREASQTSSSPAPKAPRGSSSQGPSQTSTPTDVTAIHL
# B2: cyclin D2: D-type cyclin lacking the leucine-rich motif (protein, UniProt P30279 1-289, looked up)
# G1/S-specific cyclin-D2: MELLCHEVDPVRRAVRDRNLLRDDRVLQNLLTIEERYLPQCSYFKCVQKDIQPYMRRMVATWMLEVCEEQKCEEEVFPLAMNYLDRFLAGVPTPKSHLQLLGAVCMFLASKLKETSPLTAEKLCIYTDNSIKPQELLEWELVVLGKLKWNLAAVTPHDFIEHILRKLPQQREKLSLIRKHAQTFIALCATDFKFAMYPPSMIATGSVGAAICGLQQDEEVSSLTCDALTELLAKITNTDVDCLKACQEQIEAVLLNSLQQYRQDQRDGSKSEDELDQASTPTDVRDIDL
# B3: D1: amino acids 1-202: carboxyl-terminal deletion mutant of cyclin D1 (protein, UniProt P24385 1-202, looked up, fragment)
# chain: MEHQLLCCEVETIRRAYPDANLLNDRVLRAMLKAEETCAPSVSYFKCVQKEVLPSMRKIVATWMLEVCEEQKCEEEVFPLAMNYLDRFLSLEPVKKSRLQLLGATCMFVASKMKETIPLTAEKLCIYTDNSIRPEELLQMELLLVNKLKWNLAAMTPHDFIEHFLSKMPEAEENKQIIRKHAQTFVALCATDVKFISNPPSM
# Target: T1, GST-SRC1 (361-1441) and His-tagged cyclin D1 (Homo sapiens, UniProt P24385)
# T1 construct: 6X histidine; made in house; host or cells: E. coli
# Experiment: GST pull down peptide competition assay
# Type: binding
# Details: 0.3 μg and 3 μg peptide; Western blot with anti-cyclin D1 antibody
# Description: To ask whether the LXXLL (SEQ ID NO:6) motifs of SRC-1 are involved in cyclin D1 binding, a peptide competition experiment was performed. Peptides (0.3 μg and 3 μg) derived from the four LXXLL motifs of SRC1 were used in a GST pull down assay using GST-SRC1 (361-1441) and His-tagged cyclin D1 as described above. […] The reduction in binding was greater with 3 μg than with 0.3 μg of each of the LXXLL (SEQ ID NO:6) peptides with no reduction shown with the LXXAA (SEQ ID NO:21)mutant peptide. […] In another experiment, the ability of peptides to compete with cyclin D1 for binding to GST-SRC1 was investigated. Increasing amounts (100, 200 and 500 nM) of AASKHKQLSELLRSG (SEQ ID NO:1) (LXXLL (SEQ ID NO:6)) and AASKHKQLSEAARSG (SEQ ID NO:23) (LXXAA) (SEQ ID NO:21) peptides were used in a GST pull down assay using GST-SRC1 (361-1441) and His-tagged cycliin D1.
# GST protein, GST-SRC1 fusion protein and His-tagged cyclin D1 protein were purified as described previously (Zwijsen et al., 1997). Binding between 500 ng GST-SRC1 and 100 ng His-D1 was performed in binding buffer (50 mM NaCl, 50 mM HEPES-KOH pH 7.6, […] 0.1% (w/v) NP40, 0.1 mM PMSF and 0.5% charcoal-stripped serum) bound to glutathione-sepharose for 1 hour at 4° C. The beads were washed three times and bound proteins were eluted by boiling for 10 minutes in sample buffer and separated on 10% SDS-PAGE. The binding of His-cyclin D1 to GST-SRC1 was detected by Western blot analysis using monoclonal antibodies directed against cyclin D1 (DCS-6, Neomarkers). For testing a ternary complex, a baculovirus-produced ER (750 ng, Pan Vera) was added to GST-SRC1 (500 ng) and His-D1 (100 ng) in the presence or absence of 1 μM 17β-estradiol using similar conditions as described above. In Western blot analysis monoclonal antibodies directed against cyclin D1 (DCS-6, Neomarkers) and ER (LH2, Novocastra) were used.
# For the peptide inhibition assay using the peptides shown in FIG. 4(B), 150 ng GST/GST-SRC1 and 50 ng His-tagged cyclin D1 were used. […]
# T1 sequence (P24385 whole entry): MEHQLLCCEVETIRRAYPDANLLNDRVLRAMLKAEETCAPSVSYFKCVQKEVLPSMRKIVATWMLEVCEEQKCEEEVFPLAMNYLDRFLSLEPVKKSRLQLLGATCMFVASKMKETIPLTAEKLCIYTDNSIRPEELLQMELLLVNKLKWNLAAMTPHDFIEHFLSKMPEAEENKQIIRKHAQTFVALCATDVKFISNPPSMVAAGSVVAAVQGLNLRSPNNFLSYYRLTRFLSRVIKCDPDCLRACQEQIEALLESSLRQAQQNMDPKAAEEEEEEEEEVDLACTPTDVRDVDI
row,Molecule,interference with binding of cyclin D1 to SRC-1
1,P3: peptide which corresponds to the third of the three centrally located LXXLL motifs of SRC-1 (KDHQLLRYLLDKDE; listed as Homo sapiens),best competitor
2,"LXXAA mutant peptide: LXXAA mutant control peptide of the SRC-1 peptide competition experiment, FIG. 4B (PQAQQKSLQQAAT; listed as Homo sapiens) [reference compound]",no reduction

# Same assay, conditions: 100, 200 and 500 nM peptide
row,Molecule,competition with cyclin D1 for binding to GST-SRC1
1,AASKHKQLSELLRSG [LXXLL peptide derived from p300 amino acid 74-88],Binding was reduced with increasing concentration

# System: wild type ER
# Experiment: ERE-TATA-luciferase transactivation of wild type ER in COS-7 cells
# Type: cell-based
# Details: COS-7, wild type ER, presence of ligand
# Description: FIG. 1. Mapping of the region of cyclin D1 required for ER-mediated transactivation. • (A) The effect of cyclin D1 deletion mutants on ER activation in the presence of ligand. The cyclin D1 derivatives used in this study are shown in the left panel; right side of Figure represents the relative capacity of the mutants to potentiate ERE-dependent transcription. ER-negative COS-7 cells were transfected with expression vectors for wild type ER (200 ng), cyclin D1 or cyclin D1 mutants (2.5 μg), an internal control §-galactosidase plasmid (0.5 μg) and an ERE-TATA-luciferase reporter (3 μg). The effect on ER transactivation of wild type cyclin D1 was set to 100%. These studies were performed in three separate experiments and expressed as mean values with standard deviation less then […]. The alignment of leucine-rich motif of ER with D-type cyclins are shown on the bottom; the leucine-rich motif in cyclin D1 is indicated as a dark box. The identifiers for the sequences shown are as follows: Cyclin D1 (SEQ ID NO:11), Estrogen receptor (SEQ ID NO:12), the Cyclin D2 (SEQ ID NO:13), and the Cyclin D3 (SEQ ID NO:14). • (B) ER activation by D-type cyclins, cyclin D1 L254/255A point mutant (D1-LALA) and SRC-1 in the presence of ligand. COS-7 cells were transfected with D-type cyclin expression vectors, cyclin D1 Leucine-to-Alanine point mutant (D1-LALA) or SRC-1 expression vector together with wild type ER expression vector, an ERE-TATA-luciferase reporter plasmid and the internal control β-galactosidase construct. Data are expressed as relative luciferase activity compared with basal ERE-luciferase activity of wild type ER and are normalized for transfection efficiencies.
# FIG. 3. Role of coactivators in cyclin D1—induced transactivation. • (A) Effect of a dominant negative form of SRC-1 (SRC1-DN) on ER transactivation. SRC1-DN encoding amino acids 1245-1441 of SRC-1 (1, 2.5 and 5 μg) was introduced by transient transfection together with wild type ER (200 ng) and was tested for its ability to modulate ERE-dependent transcription. • (B) Effect of SRCI-DN on SRC-1 and TIF 2 mediated ER transactivation. SRC-1 (3 μg) or TIF-2 (3 μg) were transfected with SRC1-DN (3 μg) and tested for ER transactivation. • (C) Effect of SRC1-DN on cyclin D1-induced transactivation of ER 1-535 mutant. Cyclin D1 was cotransfected with SRC1-DN (1, 2.5, 5 μg) and tested for its effect on an ER harboring a deletion of coactivator binding site in helix 12 (ER 1-535). • (D) Effect of SRC1-DN on cyclin D1-induced transactivation of ER L543/544A mutant. Cyclin D1 and SRC1-DN (1, 2.5, 5 gg) were transfected and tested for the activity of ER helix 12 point mutant (ER L543/544A). The transient transfections (A-C) were performed in COS-7 cells, which were maintained in DMEM with 10 nM ligand. The relative activity was calculated by normalizing to the internal control and was divided by luciferase activity of ER (mutant) in the presence of ligand. The transfection for each set of conditions were done at least in four independent experiments and expressed as average ±SD.
# To study how cyclin D1 activates ER, cyclin D1 deletion mutants were tested for their effect on ER-transactivation. COS-7 cells were transfected with cyclin D1 mutants, together with ER and a luciferase reporter gene construct driven by a minimal TATA promoter linked to an estrogen response element (ERE). […] This part of the protein is not involved in CDK interaction and is poorly conserved among the different cyclins. […] To test the relevance of this leucine-rich domain of cyclin D1 in ER activation, a cyclin D1 mutant was constructed in which leucines 254 and 255 were mutated to alanines (D1 L254/255A). This mutation in cyclin D1 is similar to the mutation in ER (ER L543/544A) that interferes with coactivator binding to AF-2 (Danielian et al., 1992). […]
row,Molecule,ER transactivation capacity
1,D1: amino acids 1-247: carboxyl-terminal deletion mutant of cyclin D1,lack ER transactivation capacity
2,D1: amino acids 91-295: amino-terminal deletion mutant of cyclin D1,still able to activate ER
3,D1: amino acids 1-267: cyclin D1 mutant lacking the extreme carboxyl-terminus,partially retained ER activation
4,B1,behaved similar-to the D1 L254/255A mutant
5,B2,behaved similar-to the D1 L254/255A mutant
6,B3,lack ER transactivation capacity
